Numbering of substitutions follows the chain as printed. Values belong to the molecule of their own block, whether it stands above or below them.
Legend:
[1] = biological target: human GPC3 on Jurkat E6.1 cells (human) (UniProt P51654); test: FACS; share of events in the FL1-A+ gate (from 10^5); cells by legend: Jurkat E6.1 with human GPC3, not printed on the panel [23C]
[2] = biological target: human GPC3 on Jurkat E6.1 cells (human) (UniProt P51654); test: FACS; share of events in the FL1-A+ gate (from 10^5); secondary only 0.21; cells by legend: Jurkat E6.1 with human GPC3, not printed on the panel [23B]
[3] = biological target: human GPC3 on Jurkat E6.1 cells (human) (UniProt P51654); test: FACS; share of events in the FL1-A+ gate (from 10^5); beside Irrelavant IgG C10 6.49; cells by legend: Jurkat E6.1 with human GPC3, not printed on the panel [23D]
[4] = biological target: T1, human GPC3 recombinant protein (human, UniProt P51654 25-559); test: SPR (Biacore), VHH-His over human GPC3 on CM5; fit 131.7 - 17.34 nM; Rmax 1.51 RU; Chi2 0.0556
T1 construct: also called huGPC3; Human GPC3 protein
T1 sequence (P51654 25-559 limits assumed): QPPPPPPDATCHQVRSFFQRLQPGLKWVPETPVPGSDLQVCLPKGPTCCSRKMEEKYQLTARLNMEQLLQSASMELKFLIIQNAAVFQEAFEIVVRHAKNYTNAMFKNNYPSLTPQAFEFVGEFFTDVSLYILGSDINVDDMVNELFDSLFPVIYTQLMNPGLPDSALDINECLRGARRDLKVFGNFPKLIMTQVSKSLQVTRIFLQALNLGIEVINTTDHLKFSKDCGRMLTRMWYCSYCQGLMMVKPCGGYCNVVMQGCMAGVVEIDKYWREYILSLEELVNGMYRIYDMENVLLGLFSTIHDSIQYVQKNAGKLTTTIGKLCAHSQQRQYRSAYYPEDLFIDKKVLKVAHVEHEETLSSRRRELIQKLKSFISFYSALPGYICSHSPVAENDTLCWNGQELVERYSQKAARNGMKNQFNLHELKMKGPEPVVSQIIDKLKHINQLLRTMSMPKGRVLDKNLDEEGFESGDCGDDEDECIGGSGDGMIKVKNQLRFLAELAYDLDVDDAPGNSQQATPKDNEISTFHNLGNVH
Experimental: (§1) Affinities of the 19 VHH-His tagged domains were then determined by BiaCore assay. Human GPC3 protein (Sino biological cat. nr. 10088-H08H-500) was immobilized on CM5 sensor chip (GE Healthcare) as antigen. Purified VHH-His tagged domains were diluted in BiaCore buffer (0.01 M HEPES pH 7.4, 0.15 M NaCl, 3 mM EDTA, 0.05% P20) to 500 nM and injected over 2 minutes at […] followed by a half dilution series to 7.8 nM. 10 μl of 10 mM NaOH/1M NaCl were injected between samples and then off-rate wash was 5 minutes.

[5] = biological target: T1, human GPC3 recombinant protein; test: SPR (Biacore), summary table; Chi2 0.0556; Profile 'L.D.'; asterisk: values not accurately calculated by Biacore software
Experimental: as §1

[6] = biological target: T1, human GPC3 recombinant protein; test: SPR (Biacore), VHH-His over human GPC3 on CM5; fit 131.7 - 17.34 nM; Rmax 1.51 RU; Chi2 0.0556; asterisk: values not accurately calculated by Biacore software
Experimental: as §1

[7] = biological target: T2, human GPC3 on HepG2 cells (human, UniProt P51654 25-554); test: FACS, phage-displayed clone on HepG2, well A1; same clone on A-431 (no GPC3): 0.95%
T2 construct: whole, on cells
T2 sequence (P51654 25-554 limits assumed): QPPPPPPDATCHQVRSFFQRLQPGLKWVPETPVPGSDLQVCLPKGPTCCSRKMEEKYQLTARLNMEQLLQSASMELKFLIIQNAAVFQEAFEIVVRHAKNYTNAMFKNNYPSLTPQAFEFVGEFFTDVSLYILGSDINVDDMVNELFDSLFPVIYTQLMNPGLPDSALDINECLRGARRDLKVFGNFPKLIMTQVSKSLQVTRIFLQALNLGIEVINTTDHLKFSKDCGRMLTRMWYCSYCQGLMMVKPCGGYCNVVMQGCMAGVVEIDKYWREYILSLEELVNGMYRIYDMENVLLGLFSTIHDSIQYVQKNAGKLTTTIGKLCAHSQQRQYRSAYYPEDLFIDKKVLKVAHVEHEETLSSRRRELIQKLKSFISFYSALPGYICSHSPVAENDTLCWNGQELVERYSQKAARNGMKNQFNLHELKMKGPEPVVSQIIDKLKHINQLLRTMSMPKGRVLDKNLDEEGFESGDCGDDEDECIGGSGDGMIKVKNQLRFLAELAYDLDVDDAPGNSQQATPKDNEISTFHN

[8] = biological target: T2, human GPC3 on HepG2 cells; test: FACS, phage-displayed clone on HepG2, well A1; same clone on A-431 (no GPC3): 1028.96
[9] = biological target: T1, human GPC3 recombinant protein; test: SPR (Biacore), summary table; Chi2 0.926; Profile 'L.D.' (less desirable)
Experimental: as §1

[10] = biological target: T2, human GPC3 on HepG2 cells; test: FACS, periplasmic extract 1:5 + anti-c-myc + GAM-APC on HepG2, well A1; same on A-431: 0.10%
[11] = biological target: T2, human GPC3 on HepG2 cells; test: FACS, periplasmic extract 1:5 + anti-c-myc + GAM-APC on HepG2, well A1; same on A-431: 853.36
[12] = biological target: T1, human GPC3 recombinant protein; test: SPR (Biacore), VHH-His over human GPC3 on CM5; fit 125 - 7.8 nM; Rmax 16.8 RU; Chi2 0.926
Experimental: as §1

[13] = biological target: T1, human GPC3 recombinant protein; test: SPR (Biacore) off-rate screen, periplasmic extract over human GPC3 on CM5; R0 13.6; asterisk not explained on the sheet
Experimental: (§2) Human GPC3 protein in acetate buffer, pH 5.0, was immobilized in a sensor chip CM5 (GE Healthcare; Cat. Nr. BR-1005-30; Lot. Nr.10245232) and successful immobilization was confirmed by using a commercially available human GPC3 antibody (R&D cat. nr. MAB2119) and the anti-GPC3-VHH-Fc (both at 10 μg/mL). Periplasmic extracts from the MP were diluted in Biacore Buffer (0.01 M HEPES pH 7.4, 0.15 M NaCl, 3 mM EDTA, 0.05% P20) and injected over 2 minutes at 30 μL/min. 10 μl of 10 mM NaOH/1M NaCl were injected between samples and off-rates were measured over 5 minutes. Off-rate ([…]) were calculated using BIACORE software 1:1 interaction Langmuir binding model.

[14] = biological target: T1, human GPC3 recombinant protein; test: SPR (Biacore) off-rate screen, periplasmic extract over human GPC3 on CM5; R0 40.1
Experimental: as §2

[15] = biological target: T2, human GPC3 on HepG2 cells; test: FACS, phage-displayed clone on HepG2, well A2; same clone on A-431 (no GPC3): 0.72%
[16] = biological target: T2, human GPC3 on HepG2 cells; test: FACS, phage-displayed clone on HepG2, well A2; same clone on A-431 (no GPC3): 1042.47
[17] = biological target: T2, human GPC3 on HepG2 cells; test: FACS, periplasmic extract 1:5 + anti-c-myc + GAM-APC on HepG2, well A2; same on A-431: 0.21%
[18] = biological target: T2, human GPC3 on HepG2 cells; test: FACS, periplasmic extract 1:5 + anti-c-myc + GAM-APC on HepG2, well A2; same on A-431: 753.37
[19] = biological target: T1, human GPC3 recombinant protein; test: SPR (Biacore) off-rate screen, periplasmic extract over human GPC3 on CM5; R0 71.6
Experimental: as §2

[20] = biological target: T1, human GPC3 recombinant protein; test: SPR (Biacore), summary table; Chi2 0.365; Profile 'Medium'; FIG. 18 prints 3.82E-09
[21] = biological target: T1, human GPC3 recombinant protein; test: SPR (Biacore), VHH-His over human GPC3 on CM5; fit 250 - 7.8 nM; Rmax 11.3 RU; Chi2 0.365
Experimental: as §1

[22] = biological target: T1, human GPC3 recombinant protein; test: SPR (Biacore), summary table; Chi2 0.281; Profile 'Good'
[23] = biological target: T1, human GPC3 recombinant protein; test: SPR (Biacore) off-rate screen, periplasmic extract over human GPC3 on CM5; R0 61.1
Experimental: as §2

[24] = biological target: T1, human GPC3 recombinant protein; test: SPR (Biacore), VHH-His over human GPC3 on CM5; fit 131.7 - 17.34 nM; Rmax 11.5 RU; Chi2 0.281
Experimental: as §1

[25] = biological target: T2, human GPC3 on HepG2 cells; test: FACS, phage-displayed clone on HepG2, well H1; same clone on A-431 (no GPC3): 1.36%
[26] = biological target: T2, human GPC3 on HepG2 cells; test: FACS, phage-displayed clone on HepG2, well H1; same clone on A-431 (no GPC3): 1059.31
[27] = biological target: T2, human GPC3 on HepG2 cells; test: FACS, periplasmic extract 1:5 + anti-c-myc + GAM-APC on HepG2, well H1; same on A-431: 0.24%
[28] = biological target: T2, human GPC3 on HepG2 cells; test: FACS, periplasmic extract 1:5 + anti-c-myc + GAM-APC on HepG2, well H1; same on A-431: 759.64
[29] = biological target: T1, human GPC3 recombinant protein; test: SPR (Biacore) off-rate screen, periplasmic extract over human GPC3 on CM5; R0 59.0
Experimental: as §2

[30] = biological target: T1, human GPC3 recombinant protein; test: SPR (Biacore), summary table; Chi2 0.281; Profile 'Medium'; FIG. 18 prints 2.97E-09
Experimental: as §1

[31] = biological target: T1, human GPC3 recombinant protein; test: SPR (Biacore), VHH-His over human GPC3 on CM5; fit 250 - 7.8 nM; Rmax 8.15 RU; Chi2 0.281
Experimental: as §1

[32] = biological target: human GPC3 on Jurkat E6.1 cells (human) (UniProt P51654); test: FACS, 1 µg/ml VH + anti-His-FITC; share of events in the FL1-A+ gate (from 10^5); secondary only 0.21 [23F]
[33] = biological target: T1, human GPC3 recombinant protein; test: SPR (Biacore), VHH-His over human GPC3 on CM5; fit 131.7 - 17.34 nM; Rmax 1.72 RU; Chi2 0.173
Experimental: as §1

[34] = biological target: T1, human GPC3 recombinant protein; test: SPR (Biacore), summary table; Chi2 0.173; Profile 'L.D.'; asterisk: values not accurately calculated by Biacore software
Experimental: as §1

[35] = biological target: T1, human GPC3 recombinant protein; test: SPR (Biacore), VHH-His over human GPC3 on CM5; fit 131.7 - 17.34 nM; Rmax 1.72 RU; Chi2 0.173; asterisk: values not accurately calculated by Biacore software
Experimental: as §1

Sequence of human GPC3 on Jurkat E6.1 cells (human) (P51654 25-554 limits assumed): as above

FL1-A+ [1]: 6.49
Molecule: Irrelavant IgG C10 (antibody)

FL1-A+ [2]: 47.1
FL1-A+ [3]: 74.9
Molecule: HN3-Fc (Fc fusion)

koff [4]: 0.00119 s⁻¹
kon [4]: 222000 M⁻¹ s⁻¹
Kd [5]: ~5.36 nM
Ka [6]: ~1.86e+08 M⁻¹
Kd [6]: ~5.36 nM
B1: anti-GPC3 VHH-His tagged domain VHH17 (VHH)
VHH: EVQLVESGGGLVQPGGSLRLSCAASGFTFSSYAMSWVRQAPGKGLEWVSAIYSGGSTYYADSVKGRFTISRDNSKNTLYLQMNSLRAEDTAVYYCARGDSSSSRFDYWGQGTLVTVSS
notes: Produced from a mammalian expression vector as a His fusion; not shown: His tag

% of Binding [7]: 18.6%
Mean FL2-A [8]: 2720
Kd [9]: 66.2 nM
% of Binding [10]: 0.38%
Mean FL4-A [11]: 729
Ka [12]: 1.51e+07 M⁻¹
Kd [12]: 66.2 nM
koff [12]: 0.0216 s⁻¹
kon [12]: 327000 M⁻¹ s⁻¹
koff [13]: 0.00728 s⁻¹
B2: anti-GPC3 VHH-His tagged domain VHH14 (VHH)
VHH: QVQLVESGGGLVQPGGSLRLSCAASGFNFSNYWMHWVRQAPGKELVWVSRINSDGSSTSYADPVKGRFTISRDNANNMLYLQMNSLRAEDTAMYYCVRVALGFDFWGQGTLVTVSS
notes: as for B1

koff [14]: 0.00347 s⁻¹
B3: VH23 (VHH)
VHH: EVQLVESGGGLVQPGGSLRLSCAASGFTFSSYAMSWVRQAPGKESEWVSSISGGGSSTYYADSLKGRFTISRDNSKNTLYLQMNSLRAEDTAVYYCSKDPRFGEPPFDYWGQGTLVTVSS
notes: also called VHH23

% of Binding [15]: 61.4%
Mean FL2-A [16]: 26600
% of Binding [17]: 0.3%
Mean FL4-A [18]: 752
koff [19]: 0.00607 s⁻¹
Kd [20]: 3.57 nM
Ka [21]: 2.62e+08 M⁻¹
Kd [21]: 3.82 nM
koff [21]: 0.00538 s⁻¹
kon [21]: 1.41e+06 M⁻¹ s⁻¹
B4: anti-GPC3 VHH-His tagged domain VHH13 (VHH)
VHH: B3 VHH with S45P, S56G, S85R, S97A, K98R, R101M, P105R
notes: as for B1

Kd [22]: 5.07 nM
koff [23]: 0.00236 s⁻¹
Ka [24]: 1.97e+08 M⁻¹
Kd [24]: 5.07 nM
koff [24]: 0.00237 s⁻¹
kon [24]: 466000 M⁻¹ s⁻¹
B5: anti-GPC3 VHH-His tagged domain VHH4 (VHH)
VHH: B3 VHH with E1Q, G54S, L115T
notes: Produced from a mammalian expression vector as a His fusion; also called VH4; not shown: His tag

% of Binding [25]: 66.2%
Mean FL2-A [26]: 22600
% of Binding [27]: 0.57%
Mean FL4-A [28]: 842
koff [29]: 0.00325 s⁻¹
Kd [30]: 2.19 nM
Ka [31]: 3.37e+08 M⁻¹
Kd [31]: 2.97 nM
koff [31]: 0.00261 s⁻¹
kon [31]: 880000 M⁻¹ s⁻¹
FL1-A+ [32]: 0.78
B6: anti-GPC3 VHH-His tagged domain VHH11 (VHH)
VHH: B3 VHH with S45P, K98R, G103R
notes: as for B1

koff [33]: 0.00249 s⁻¹
kon [33]: 511000 M⁻¹ s⁻¹
Kd [34]: ~4.88 nM
Ka [35]: ~2.05e+08 M⁻¹
Kd [35]: ~4.88 nM
B7: anti-GPC3 VHH-His tagged domain VHH18 (VHH)
VHH: B3 VHH with E1Q, S45P, K98R, F102L, L115T
notes: as for B1
